Reference: patent US20250171787, “APTAMERS, PHARMACEUTICAL COMPOSITIONS THEREOF, AND METHODS FOR PREVENTING OR TREATING BCMA-ASSOCIATED DISEASES OR CONDITIONS” (Aptapeutics Limited, published 2025)

Target: T1, BCMA (TNFRSF17) (Homo sapiens, UniProt Q02223 Q02223:1-54)
Experiment: ELONA; random region only
Conditions: tags: His-tag; label: 5'-biotin
Method: (§1) ELONA was used to evaluate the binding affinity of the aptamers. 500 ng of His-tagged recombinant BCMA was used to coat each well of a 96-well microtiter plate via overnight incubation at 4° C. 1 hour of BSA blocking at room temperature was used to cover non-binding sites and was followed by 4 washes with DNA binding buffer for 5 minutes. Varying concentrations of each aptamer was added into each well for 45-minute incubation with gentle shaking. The wells were then washed with wash buffer 4 times, 5 minutes each. 100 μl of streptavidin-HRP (1:10000 in PBST+0.1% BSA) was added into each well for 30-minute incubation. 4 washes with binding buffer were then performed. 50 μl of TMB was added to each well for a 20-minute incubation. 50 μl of 2M H₂SO₄ was used to stop the reaction, followed by measurement of 450 nm absorbance.
(§2) Their binding affinity was evaluated via ELONA. Binding curves were plotted, followed by calculation of the binding affinity.

T1 sequence (Q02223 1-54, one chain of several): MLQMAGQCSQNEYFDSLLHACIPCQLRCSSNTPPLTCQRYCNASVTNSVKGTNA

Row | Binder | Kd
1 | TGTTGCTGTGCAGGAAGAATGCAGATTCCCAACAT (ssDNA) [10-8] | 184 nM

Target: T1, BCMA (TNFRSF17)
Experiment: ELONA
Conditions: tags: His-tag; label: 5'-biotin
Method: as §1, §2

Row | Binder | Kd
2 | 10-10 (ssDNA) DNA: ACGCTAGCTGTTGCTGTGCAGGAAGAATGCAGATTCCCAACATGGATCCGAGCTCCACGTG | 1550 nM
3 | 10-9 (ssDNA) DNA: GGTCGACGCTAGCTGTTGCTGTGCAGGAAGAATGCAGATTCCCAACATGGATCCGAGCTCCACGTG | 451 nM
4 | 10-5 (ssDNA) DNA: CGTACGGTCGACGCTAGCTGTTGCTGTGCAGGAAGAATGCAGATTCCCAACATGGA | 579 nM
5 | CGTACGGTCGACGCTAGCTGTTGCTGTGCAGGAAGAATGCA (ssDNA) [10-2] | 240 nM
6 | 10-6 (ssDNA) DNA: CGTACGGTCGACGCTAGCTGTTGCTGTGCAGGAAGAATGCAGATTCCCAACATGGATCCGA | 364 nM
7 | 10-12 (ssDNA) DNA: TTGCTGTGCAGGAAGAATGCAGATTCCCAACATGGATCCGAGCTCCACGTG | 542 nM
8 | 10-7 (ssDNA) DNA: CGTACGGTCGACGCTAGCTGTTGCTGTGCAGGAAGAATGCAGATTCCCAACATGGATCCGAGCTCC | 65 nM
9 | CGTACGGTCGACGCTAGCTGTTGCTGTGCAGGAAG (ssDNA) [10-1] | 1290 nM
10 | 10-11 (ssDNA) DNA: AGCTGTTGCTGTGCAGGAAGAATGCAGATTCCCAACATGGATCCGAGCTCCACGTG | 1590 nM
11 | 10-4 (ssDNA) DNA: CGTACGGTCGACGCTAGCTGTTGCTGTGCAGGAAGAATGCAGATTCCCAAC | 130 nM

Target: T1, BCMA (TNFRSF17)
Experiment: ELONA; best of the truncations
Conditions: tags: His-tag; label: 5'-biotin
Method: as §1, §2

Row | Binder | Kd
12 | CGTACGGTCGACGCTAGCTGTTGCTGTGCAGGAAGAATGCAGATTC (ssDNA) [10-3] | 59 nM

Target: T1, BCMA (TNFRSF17)
Experiment: ELONA
Conditions: tags: His-tag

Row | Binder | Kd
13 | CGTACGGTCGACGCTAGCTGTTGCTGTGCAGGAAGAATGCAGATTC (XNA, 2'-OMe on all cytosines; 3' inverted dT (terminal t in listing is the inverted dT)) [modified 10-3] | ~64.2 nM

Target: T1, BCMA (TNFRSF17)
Experiment: ELONA; Kd determined but value only in FIG. 2
Conditions: tags: His-tag; label: 5'-biotin

Row | Binder | binding result
14 | Sample 7 (ssDNA) DNA: CGTACGGTCGACGCTAGCCCATGGGAATGCAGACCGCAGGCTGGCTGTAGGAGGGATCCGAGCTCCACGTG | binds
15 | Sample 1 (ssDNA) DNA: CGTACGGTCGACGCTAGCAAGTATAGACGTGATGCAGGGAATGCAGACCCAGGGGATCCGAGCTCCACGTG | binds
16 | Sample 10 (ssDNA) DNA: CGTACGGTCGACGCTAGCTGTTGCTGTGCAGGAAGAATGCAGATTCCCAACATGGATCCGAGCTCCACGTG | binds
